# T1: CytRN (CytR DNA-binding domain) (Escherichia coli, UniProt P0ACN7 1-66)
# T1 sequence: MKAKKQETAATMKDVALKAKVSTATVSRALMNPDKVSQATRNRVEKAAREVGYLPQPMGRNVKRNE
# Biological target: T1, CytRN (CytR DNA-binding domain)
# Assay: NMR
binder,measurement,value
udp half-site DNA (dsDNA) DNA 1: ATTTATGCAACGCA DNA 2: TGCGTTGCATAAAT,binding result,binds
